Experimental data as given in PMC2994917 (The Journal of neuroscience : the official journal of the …, 2010).

Columns and labels:
NSF S460E mutant = NSF S460E mutant (Chinese hamster, UniProt P18708 1-744, S460E); experiment: far-Western, overlay or dot blot
NSF T461E mutant = NSF T461E mutant (Chinese hamster, UniProt P18708 1-744, T461E); experiment: far-Western, overlay or dot blot
Sequence of NSF T461E mutant (P18708 whole entry T461E): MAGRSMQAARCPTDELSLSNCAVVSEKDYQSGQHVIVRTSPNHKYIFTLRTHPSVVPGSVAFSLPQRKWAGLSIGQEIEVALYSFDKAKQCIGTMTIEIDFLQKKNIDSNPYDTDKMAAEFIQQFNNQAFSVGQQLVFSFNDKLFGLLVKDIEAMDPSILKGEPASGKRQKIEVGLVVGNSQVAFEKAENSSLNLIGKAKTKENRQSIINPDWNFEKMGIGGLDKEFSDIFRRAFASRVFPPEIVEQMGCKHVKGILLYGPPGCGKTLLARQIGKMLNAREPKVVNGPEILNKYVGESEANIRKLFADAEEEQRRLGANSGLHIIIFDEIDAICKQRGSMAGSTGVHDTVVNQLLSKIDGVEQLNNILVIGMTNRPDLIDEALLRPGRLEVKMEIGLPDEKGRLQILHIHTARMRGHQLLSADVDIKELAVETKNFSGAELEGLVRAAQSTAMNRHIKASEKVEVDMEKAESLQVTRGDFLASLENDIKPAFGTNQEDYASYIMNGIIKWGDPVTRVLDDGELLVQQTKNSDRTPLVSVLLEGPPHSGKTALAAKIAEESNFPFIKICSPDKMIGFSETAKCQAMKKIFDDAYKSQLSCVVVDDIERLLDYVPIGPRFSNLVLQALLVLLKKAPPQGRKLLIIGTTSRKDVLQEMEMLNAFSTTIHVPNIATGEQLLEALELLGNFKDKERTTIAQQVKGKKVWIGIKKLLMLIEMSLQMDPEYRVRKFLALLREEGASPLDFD

Sequence of NSF S460E mutant (P18708 whole entry S460E): as the sequence (P18708 whole entry T461E) above, with S460E, E461T counted along it

binding result (NSF S460E mutant): binds
binding result (NSF T461E mutant): binds
B1: human recombinant PKCε (Invitrogen) (enzyme, UniProt Q02156 1-737, looked up)
chain: MVVFNGLLKIKICEAVSLKPTAWSLRHAVGPRPQTFLLDPYIALNVDDSRIGQTATKQKTNSPAWHDEFVTDVCNGRKIELAVFHDAPIGYDDFVANCTIQFEELLQNGSRHFEDWIDLEPEGRVYVIIDLSGSSGEAPKDNEERVFRERMRPRKRQGAVRRRVHQVNGHKFMATYLRQPTYCSHCRDFIWGVIGKQGYQCQVCTCVVHKRCHELIITKCAGLKKQETPDQVGSQRFSVNMPHKFGIHNYKVPTFCDHCGSLLWGLLRQGLQCKVCKMNVHRRCETNVAPNCGVDARGIAKVLADLGVTPDKITNSGQRRKKLIAGAESPQPASGSSPSEEDRSKSAPTSPCDQEIKELENNIRKALSFDNRGEEHRAASSPDGQLMSPGENGEVRQGQAKRLGLDEFNFIKVLGKGSFGKVMLAELKGKDEVYAVKVLKKDVILQDDDVDCTMTEKRILALARKHPYLTQLYCCFQTKDRLFFVMEYVNGGDLMFQIQRSRKFDEPRSRFYAAEVTSALMFLHQHGVIYRDLKLDNILLDAEGHCKLADFGMCKEGILNGVTTTTFCGTPDYIAPEILQELEYGPSVDWWALGVLMYEMMAGQPPFEADNEDDLFESILHDDVLYPVWLSKEAVSILKAFMTKNPHKRLGCVASQNGEDAIKQHPFFKEIDWVLLEQKKIKPPFKPRIKTKRDVNNFDQDFTREEPVLTLVDEAIVKQINQEEFKGFSYFGEDLMP
